According to patent US20250223580:

Legend:
[1] = system: HA-Csx30 K551A/K553A
[2] = system: Csx30 from Desulfonema ishimotonii, full length
[3] = system: N-terminal HA-tagged Csx30 alanine mutants of individual regions of the Csx29-Csx30 interface
[4] = system: HA-Csx30 S526A/Q428A/R530A/Q531A
[5] = system: HA-Csx30 M527A
[6] = system: Csx30 fragment, residues 396-565
[7] = system: TwinStrep-SUMO-Csx30 1-544 (C-terminal truncation of Csx30)
TwinStrep-SUMO-Csx30 1-544 (C-terminal truncation of Csx30), sequence (chain, as listed by the source): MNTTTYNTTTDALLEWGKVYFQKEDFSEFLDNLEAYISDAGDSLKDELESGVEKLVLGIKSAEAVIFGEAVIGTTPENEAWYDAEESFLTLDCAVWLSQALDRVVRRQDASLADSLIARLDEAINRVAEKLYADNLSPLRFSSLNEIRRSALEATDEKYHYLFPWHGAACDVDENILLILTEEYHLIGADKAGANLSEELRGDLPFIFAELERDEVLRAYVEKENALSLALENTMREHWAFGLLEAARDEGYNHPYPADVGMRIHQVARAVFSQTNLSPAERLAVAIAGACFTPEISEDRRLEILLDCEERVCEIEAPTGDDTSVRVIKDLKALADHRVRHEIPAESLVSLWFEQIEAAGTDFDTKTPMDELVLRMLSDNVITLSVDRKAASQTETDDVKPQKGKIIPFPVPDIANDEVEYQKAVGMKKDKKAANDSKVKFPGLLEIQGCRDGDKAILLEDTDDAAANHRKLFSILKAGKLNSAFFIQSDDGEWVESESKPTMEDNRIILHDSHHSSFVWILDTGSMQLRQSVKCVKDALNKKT

Csx30 from Desulfonema ishimotonii, full length, sequence (chain, as listed by the source): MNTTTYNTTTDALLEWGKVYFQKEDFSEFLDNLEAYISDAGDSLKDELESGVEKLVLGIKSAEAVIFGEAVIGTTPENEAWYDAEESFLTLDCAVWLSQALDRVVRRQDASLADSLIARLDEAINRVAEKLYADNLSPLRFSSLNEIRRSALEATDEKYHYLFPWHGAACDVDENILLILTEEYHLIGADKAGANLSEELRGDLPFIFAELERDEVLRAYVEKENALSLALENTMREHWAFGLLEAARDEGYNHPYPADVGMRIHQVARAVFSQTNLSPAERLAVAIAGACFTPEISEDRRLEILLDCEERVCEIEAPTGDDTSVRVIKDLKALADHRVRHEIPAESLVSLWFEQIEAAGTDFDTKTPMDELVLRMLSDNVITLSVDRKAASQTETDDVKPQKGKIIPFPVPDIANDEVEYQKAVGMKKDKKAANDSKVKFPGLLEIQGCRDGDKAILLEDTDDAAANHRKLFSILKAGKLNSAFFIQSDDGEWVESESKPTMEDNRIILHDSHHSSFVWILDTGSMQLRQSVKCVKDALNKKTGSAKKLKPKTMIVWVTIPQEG
Csx30 fragment, residues 396-565, sequence (chain, as listed by the source): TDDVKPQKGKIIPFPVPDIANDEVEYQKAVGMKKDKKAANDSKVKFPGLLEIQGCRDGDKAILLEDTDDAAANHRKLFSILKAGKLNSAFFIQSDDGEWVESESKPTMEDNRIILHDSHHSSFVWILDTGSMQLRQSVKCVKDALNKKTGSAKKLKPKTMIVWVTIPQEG

| Substance | stated: cleaved (target-RNA-dependent cleavage of HA-Csx30, anti-HA immunoblot) [1] | cleavage of Csx30 in in vitro reactions (immunoblot, SDS-PAGE) [2] | cleavage of Up1 within the purified Up1-Up3 complex (SDS-PAGE, Coomassie) [2] | stated: cleaved (target-RNA-dependent cleavage of HA-Csx30, anti-HA immunoblot) [2] | in vitro cleavage of Csx30 alanine mutants (immunoblot) [3] | stated: cleaved (target-RNA-dependent cleavage of HA-Csx30, anti-HA immunoblot) [4] | stated: cleaved (target-RNA-dependent cleavage of HA-Csx30, anti-HA immunoblot) [5] | in vitro cleavage of truncated Csx30 (SDS-PAGE) [6] | molar excess of Csx30 substrate cleaved in vitro [2] | in vitro cleavage of truncated Csx30 (SDS-PAGE) [7] |
| --- | --- | --- | --- | --- | --- | --- | --- | --- | --- | --- |
| Cas7-11-Csx29-crRNA complex | K551A/K553A: without target RNA only the upper full-length band; with target RNA a product band just above the 50 kDa mark, and a weaker upper band remains | Csx30, is specifically cleaved in response to a target RNA | only in the lane with gRAMP-CHAT + and target RNA + do bands appear at about 50 kDa and just above 15 kDa, with a weaker Up1 band; the lanes without gRAMP-CHAT, or with gRAMP-CHAT and no target RNA, show only Up1 and Up3; the Up3 band is unchanged | Wildtype: without target RNA only the upper full-length band; with target RNA the upper band is weak and a strong product band stands just above the 50 kDa mark | mutating individual regions of the Csx29-Csx30 interface did not significantly affect Csx30 cleavage | S526A/Q428A/R530A/Q531A: without target RNA only the upper full-length band; with target RNA the upper band is faint and a product band stands just above the 50 kDa mark | M527A: without target RNA only the upper full-length band; with target RNA the upper band is faint and a product band stands just above the 50 kDa mark | – | – | – |
| dCas7-11-Csx29-crRNA complex (Cas7-11 D429A/D654A) | – | – | – | – | – | – | – | Csx30 fragments containing residues 396-565 were efficiently cleaved in vitro | cleaving 100-fold molar excess of Csx30 substrate in minutes | even a twenty amino acid truncation (Csx301-544) abolished cleavage activity |
